doi:10.1101/2024.01.31.578278

Target: cytochrome c (CytC), recombinant human (human, UniProt P99999 1-105)
Test: electrochemical aptasensor

Sequence of cytochrome c (CytC), recombinant human (P99999 whole entry): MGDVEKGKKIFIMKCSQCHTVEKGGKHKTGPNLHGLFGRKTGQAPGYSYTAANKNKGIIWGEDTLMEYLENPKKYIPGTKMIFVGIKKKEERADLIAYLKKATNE

Binder: CCGTGTCTGGGGCCGACCGGCGCATTGGGTACGTTGTTGC (ssDNA, 5' thiol C6 (ThioMC6-D, disulfide reduced); 3' amino modifier (AmMO)) [CytC aptamer]
- Kd: 6.19 ± 1.57 ng/mL
